Measurements: patent US20030103975A1

Target: α4 laminin fragment G^919-1207 (SEQ ID NO:13) (human), Q16363
Assay: solid-phase saturation binding ELISA: coated G^919-1207 at varying concentrations, soluble integrin at 5 ng/µl, detected with LM609

α4 laminin fragment G^919-1207 (SEQ ID NO:13) (human), Q16363, sequence (Q16363 926-1214 G1117S/P1119X limits assumed): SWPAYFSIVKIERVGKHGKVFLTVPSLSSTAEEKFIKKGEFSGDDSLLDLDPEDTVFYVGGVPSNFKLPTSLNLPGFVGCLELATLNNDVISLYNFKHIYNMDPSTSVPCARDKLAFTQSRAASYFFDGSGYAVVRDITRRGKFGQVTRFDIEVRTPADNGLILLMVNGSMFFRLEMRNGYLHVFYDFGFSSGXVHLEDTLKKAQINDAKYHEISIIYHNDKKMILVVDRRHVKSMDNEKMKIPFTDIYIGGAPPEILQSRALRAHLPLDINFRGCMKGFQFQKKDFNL

B1: soluble αvβ3 integrin heterodimer (Chemicon International), P06756 31-992; P05106 27-718 (receptor)
chain 1: FNLDVDSPAEYSGPEGSYFGFAVDFFVPSASSRMFLLVGAPKANTTQPGIVEGGQVLKCDWSSTRRCQPIEFDATGNRDYAKDDPLEFKSHQWFGASVRSKQDKILACAPLYHWRTEMKQEREPVGTCFLQDGTKTVEYAPCRSQDIDADGQGFCQGGFSIDFTKADRVLLGGPGSFYWQGQLISDQVAEIVSKYDPNVYSIKYNNQLATRTAQAIFDDSYLGYSVAVGDFNGDGIDDFVSGVPRAARTLGMVYIYDGKNMSSLYNFTGEQMAAYFGFSVAATDINGDDYADVFIGAPLFMDRGSDGKLQEVGQVSVSLQRASGDFQTTKLNGFEVFARFGSAIAPLGDLDQDGFNDIAIAAPYGGEDKKGIVYIFNGRSTGLNAVPSQILEGQWAARSMPPSFGYSMKGATDIDKNGYPDLIVGAFGVDRAILYRARPVITVNAGLEVYPSILNQDNKTCSLPGTALKVSCFNVRFCLKADGKGVLPRKLNFQVELLLDKLKQKGAIRRALFLYSRSPSHSKNMTISRGGLMQCEELIAYLRDESEFRDKLTPITIFMEYRLDYRTAADTTGLQPILNQFTPANISRQAHILLDCGEDNVCKPKLEVSVDSDQKKIYIGDDNPLTLIVKAQNQGEGAYEAELIVSIPLQADFIGVVRNNEALARLSCAFKTENQTRQVVCDLGNPMKAGTQLLAGLRFSVHQQSEMDTSVKFDLQIQSSNLFDKVSPVVSHKVDLAVLAAVEIRGVSSPDHVFLPIPNWEHKENPETEEDVGPVVQHIYELRNNGPSSFSKAMLHLQWPYKYNNNTLLYILHYDIDGPMNCTSDMEINPLRIKISSLQTTEKNDTVAGQGERDHLITKRDLALSEGDIHTLGCGVAQCLKIVCQVGRLDRGKSAILYVKSLLWTETFMNKENQNHSYSLKSSASFNVIEFPYKNLPIEDITNSTLVTTNVTWGIQPAPMPV
chain 2: GPNICTTRGVSSCQQCLAVSPMCAWCSDEALPLGSPRCDLKENLLKDNCAPESIEFPVSEARVLEDRPLSDKGSGDSSQVTQVSPQRIALRLRPDDSKNFSIQVRQVEDYPVDIYYLMDLSYSMKDDLWSIQNLGTKLATQMRKLTSNLRIGFGAFVDKPVSPYMYISPPEALENPCYDMKTTCLPMFGYKHVLTLTDQVTRFNEEVKKQSVSRNRDAPEGGFDAIMQATVCDEKIGWRNDASHLLVFTTDAKTHIALDGRLAGIVQPNDGQCHVGSDNHYSASTTMDYPSLGLMTEKLSQKNINLIFAVTENVVNLYQNYSELIPGTTVGVLSMDSSNVLQLIVDAYGKIRSKVELEVRDLPEELSLSFNATCLNNEVIPGLKSCMGLKIGDTVSFSIEAKVRGCPQEKEKSFTIKPVGFKDSLIVQVTFDCDCACQAQAEPNSHRCNNGNGTFECGVCRCGPGWLGSQCECSEEDYRPSQQDECSPREGQPVCSQRGECLCGQCVCHSSDFGKITGKYCECDDFSCVRYKGEMCSGHGQCSCGDCLCDSDWTGYYCNCTTRTDTCMSSNGLLCSGRGKCECGSCVCIQPGSYGDTCEKCPTCPDACTFKKECVECKKFDRGALHDENTCNRYCRDEIESVKELKDTGKDAVNCTYKNEDDCVVRFQYYEDSSGKSILYVVEEPECPKGPD
  Kd: 4 nM
